Experimental data taken from the RNAGym collection of RNA variant scans (doi:10.7554/elife.80360).

B1: HDV Ribozyme (parent)
chain: GGCCGGCAUGGUCCCAGCCUCCUCGCUGGCGCCGGCUGGGCAACAUUCCGAGGGGACCGUCCCCUCGGUAAUGGCGAAUGGGACCCA

Variants of: B1
Test: self-cleavage, relative activity (ratio to wild type); higher = more cleavage; co-transcriptional

Row | Variant | self-cleavage
1 | G6A G35U | 0.148
2 | G5U C64A | 0.499
3 | G5C U79C | 0.141
4 | G5C U79A | 0.185
5 | G6A G31C | 0.111
6 | G6A G31A | 0.0992
7 | G5U G10A | 0.135
8 | G5U C32U | 0.104
9 | G6C G53A | 0.233
10 | G6C G50A | 0.225
11 | G6C G50U | 0.17
12 | G6A C75U | 0.193
13 | G6A C75G | 0.0369
14 | G6A C75A | 0.17
15 | G5U G81C | 0
16 | G5U G81A | 0.147
17 | G6A G50A | 0.785
18 | G5U C66U | 0.677
19 | G5U C66A | 0.609
20 | G6A C86A | 0.536
21 | G6A G54C | 0.672
22 | G6A G82U | 0.188
23 | G5U C30U | 0.237
24 | G5U C30G | 0

Row | Variant | self-cleavage
25 | G6C C57A | 0.346
26 | G6C A83C | 0.0875
27 | G6C A83U | 0.0692
28 | G6C G11U | 0
29 | G6C C33A | 0.172
30 | G6C C33G | 0.185
31 | G5U C75G | 0.246
32 | G5U C75A | 0.101
33 | G6A C57U | 0.665
34 | G6C C85U | 0.401
35 | G6A C14A | 0.237
36 | G6A C14G | 0.287
37 | G6C G38U | 0.203
38 | G6C G17A | 0
39 | G6A G52U | 0.694
40 | G5U C19A | 0.256
41 | G5U C19U | 0.0923
42 | G5U C19G | 0
43 | G6A C49U | 0.58
44 | G6A C49A | 0.566
45 | G6A C49G | 0.222
46 | G5U C14G | 0.185
47 | G5U C14A | 0.0791
48 | G6A G73A | 0.256

Row | Variant | self-cleavage
49 | G6A A42U | 0.283
50 | G6A A42C | 0.0831
51 | G6A C64U | 0.739
52 | G5U A16G | 0.175
53 | G5U U79A | 0.104
54 | G5U U79C | 0.123
55 | G5U G67A | 0.32
56 | G5U G67C | 0.582
57 | G5U G67U | 0.364
58 | G5U A87U | 0.293
59 | G5U G74U | 0
60 | G5U G68U | 0.268
61 | G5U G68A | 0.697
62 | G6A C13A | 0.185
63 | G5U G17A | 0.189
64 | G5U G17C | 0
65 | G5U C18G | 0
66 | G5U C18U | 0.0504
67 | G6C G28U | 0
68 | G6C G28A | 0.0545
69 | G6C G73A | 0.0723
70 | G6C G73C | 0
71 | G6A C36A | 0
72 | G6A C36U | 0.286

Row | Variant | self-cleavage
73 | G6A C36G | 0.0811
74 | G6A U20A | 0.0536
75 | G6A U20C | 0.158
76 | G6C G34C | 0.115
77 | G6C G34U | 0
78 | G6C C13G | 0.151
79 | G6C C13A | 0
80 | G6C C13U | 0.0831
81 | G6C C49A | 0.262
82 | G5U G54C | 0.867
83 | G6A G17U | 0.0773
84 | G6A G28U | 0.0573
85 | G6A G28C | 0
86 | G6A G55C | 0.791
87 | G6A C22A | 0.208
88 | G6A C22U | 0.4
89 | G5U A78G | 0.332
90 | G6A A16G | 0.573
91 | G6C C84A | 0.332
92 | G6C C84G | 0.138
93 | G6C C84U | 0.0573
94 | G5C U72A | 0.095
95 | G5C U72G | 0.0831
96 | G6C C86U | 0.403

Row | Variant | self-cleavage
97 | G6A G67A | 0.763
98 | G5U C48G | 0.554
99 | G6A A77U | 0.18
100 | G6A A77G | 0.277
101 | G6A G68C | 0.604
102 | G6A G68U | 0.691
103 | G6C A71U | 0.138
104 | G6C A71G | 0
105 | G5U C36G | 0.128
106 | G5U C36U | 0.104
107 | G5U G11C | 0
108 | G5U G76U | 0.529
109 | G6A U65G | 0.506
110 | G6A U65A | 0.54
111 | G6C C58G | 0.133
112 | G6A G38U | 0.0923
113 | G5U C44A | 0.119
114 | G5U C44G | 0.217
115 | G6A C66G | 0.456
116 | G6C C24G | 0.151
117 | G6C C24U | 0
118 | G6C G31U | 0
119 | G6C C21U | 0.0573
120 | G5U G25A | 0.0346

Row | Variant | self-cleavage
121 | G5U C62A | 0.369
122 | G5U C62U | 0.467
123 | G6A G25A | 0.121
124 | G6A G25U | 0.089
125 | G6A G25C | 0.0462
126 | G5U C61U | 0.399
127 | G6C C61G | 0.222
128 | G6A C15A | 0.375
129 | G6A C15U | 0.431
130 | G6C C64A | 0.594
131 | G6C C64G | 0.344
132 | G6C C64U | 0.244
133 | G6C G52A | 0.369
134 | G6C G52U | 0.237
135 | G6A C62G | 0.441
136 | G6A C62U | 0.728
137 | G5U G39U | 0.136
138 | G6C G67C | 0.192
139 | G6C G67U | 0.268
140 | G6C G67A | 0.35
141 | G6A U23G | 0.342
142 | G6A U23C | 0.532
143 | G6A A70C | 0.527
144 | G6A A70U | 0.399

Row | Variant | self-cleavage
145 | G5U G80C | 0.0811
146 | G5U C26U | 0.864
147 | G5U C26G | 0.615
148 | G5U U9A | 0.578
149 | G5U C21A | 0
150 | G5U U37C | 0.519
151 | G5U U37G | 0.0755
152 | G5U C63A | 0.332
153 | G5U C63G | 0
154 | G5U C63U | 0.38
155 | G6A U79G | 0.227
156 | G6C G29C | 0.161
157 | G6C G29A | 0
158 | G5U U46G | 0
159 | G5U U46C | 0
160 | G6A C61A | 0.695
161 | G6A C19G | 0
162 | G6C A8U | 0.346
163 | G5U A51U | 0.688
164 | G5U A51G | 0.875
165 | G6A G40C | 0.232
166 | G6A G40A | 0.505
167 | G6A U69G | 0.689
